Publication PMC10192418 (2023)

B1: linear peptide 3 [modified: 5(6)-carboxyfluorescein on the N-terminus; 5(6)-carboxyfluorescein on the N-terminus] / B-RCAL (BÜHLMANN recombinant calprotectin; His6-linker-S100A9-linker-S100A8) [human] (parent complex)
chain 1: RSPESVAFPMFQSHWYSG
chain 2: MTCKMSQLERNIETIINTFHQYSVKLGHPDTLNQGEFKELVRKDLQNFLKKENKNEKVIEHIMEDLDTNADKQLSFEEFIMLMARLTWASHEKMHEGDEGPGHHHKPGLGEGTPLEVLFQGPMLTELEKALNSIIDVYHKYSLIKGNFHAVYRDDLKKLLETECPQYIRKKGADVWFKELDINTDGAVNFQEFLILVIKMGVAAHKKSHEESHKE

Variants of: B1
Experiment: SPR; peptide injected at 500 nM; single measurement; calprotectin immobilized; read off a plot
Work on chain 1 RSPASVAFPMFQSHWYSG [chain 1 E4A] yielded a response of about 130 RU.
